These results are taken from EP0733063B1.

“And” between values parts separate entries of the source, which are not always exact repeats. Equal entries are not always repeated.

Assay [1] deals with purified monoclonal anti-hCG antibody (anti-hCG-A antibody, gift from Organon Technika). Briefly: ratio of affinity constants of hCG and of the oligopeptide for the antibody.
Assay [2] shares this target. The assay can be described thus: fluorescence anisotropy displacement, non-linear curve fitting by Equation (6), 6 C.

With “human chorionic gonadotrophin (hCG), highly purified, intact (from UniProt P01215 25-116; P0DN86 21-165) (ligand)”, in assay [1], the fold higher binding affinity than the oligopeptide was 300 fold and 500 fold. For the same substance, the Ka in assay [2] came out at 9.4e+09 M⁻¹.
